Source: patent publication US20140087995A1 (published 2014)
Numbered stars: 1 amine (or outer) side, 2 acyl side, 3 side chain; on linkers, the order of the positions; unused ones are H or OH. Bridge positions count the residues as written; N and C are the ends. Side chains are listed from the residue outwards. Ends that are not written are not given here. * marks the point of attachment. C20 diacid = O=C(O)CCCCCCCCCCCCCCCCCCC(=O)*; γGlu = O=C(O)[C@H](CCC(=O)[*:2])N[*:1]; AEEA = NCCOCCOCC(=O)O

B1: N^α1-[(4S)-4-carboxy-4-(19-carboxynonadecanoylamino)butanoyl]-[Glu14,Arg17,Pro21,Pro27,Pro31]-h-amylin (peptide)
peptide: {C20 diacid-γGlu}-KCNTATCATQRLAEFLRHSSPNFGAIPSSTPVGSNTY-NH2
modifications: disulfide 2-7
SMILES: CC[C@H](C)[C@H](NC(=O)[C@H](C)NC(=O)CNC(=O)[C@H](Cc1ccccc1)NC(=O)[C@H](CC(N)=O)NC(=O)[C@@H]1CCCN1C(=O)[C@H](CO)NC(=O)[C@H](CO)NC(=O)[C@H](Cc1c[nH]cn1)NC(=O)[C@H](CCCNC(=N)N)NC(=O)[C@H](CC(C)C)NC(=O)[C@H](Cc1ccccc1)NC(=O)[C@H](CCC(=O)O)NC(=O)[C@H](C)NC(=O)[C@H](CC(C)C)NC(=O)[C@H](CCCNC(=N)N)NC(=O)[C@H](CCC(N)=O)NC(=O)[C@@H](NC(=O)[C@H](C)NC(=O)[C@@H]1CSSC[C@H](NC(=O)[C@H](CCCCN)NC(=O)CC[C@H](NC(=O)CCCCCCCCCCCCCCCCCCC(=O)O)C(=O)O)C(=O)N[C@@H](CC(N)=O)C(=O)N[C@@H]([C@@H](C)O)C(=O)N[C@@H](C)C(=O)N[C@@H]([C@@H](C)O)C(=O)N1)[C@@H](C)O)C(=O)N1CCC[C@H]1C(=O)N[C@@H](CO)C(=O)N[C@@H](CO)C(=O)N[C@H](C(=O)N1CCC[C@H]1C(=O)N[C@H](C(=O)NCC(=O)N[C@@H](CO)C(=O)N[C@@H](CC(N)=O)C(=O)N[C@H](C(=O)N[C@@H](Cc1ccc(O)cc1)C(N)=O)[C@@H](C)O)C(C)C)[C@@H](C)O
notes: also called compound 31
B2: N^α1-[(4S)-4-carboxy-4-(19-carboxynonadecanoylamino)butanoyl]-[His14,Arg17,Pro21,Pro27,Glu35]-h-amylin (peptide)
peptide: {C20 diacid-γGlu}-KCNTATCATQRLAHFLRHSSPNFGAIPSSTNVGSETY-NH2
modifications: disulfide 2-7
SMILES: CC[C@H](C)[C@H](NC(=O)[C@H](C)NC(=O)CNC(=O)[C@H](Cc1ccccc1)NC(=O)[C@H](CC(N)=O)NC(=O)[C@@H]1CCCN1C(=O)[C@H](CO)NC(=O)[C@H](CO)NC(=O)[C@H](Cc1c[nH]cn1)NC(=O)[C@H](CCCNC(=N)N)NC(=O)[C@H](CC(C)C)NC(=O)[C@H](Cc1ccccc1)NC(=O)[C@H](Cc1c[nH]cn1)NC(=O)[C@H](C)NC(=O)[C@H](CC(C)C)NC(=O)[C@H](CCCNC(=N)N)NC(=O)[C@H](CCC(N)=O)NC(=O)[C@@H](NC(=O)[C@H](C)NC(=O)[C@@H]1CSSC[C@H](NC(=O)[C@H](CCCCN)NC(=O)CC[C@H](NC(=O)CCCCCCCCCCCCCCCCCCC(=O)O)C(=O)O)C(=O)N[C@@H](CC(N)=O)C(=O)N[C@@H]([C@@H](C)O)C(=O)N[C@@H](C)C(=O)N[C@@H]([C@@H](C)O)C(=O)N1)[C@@H](C)O)C(=O)N1CCC[C@H]1C(=O)N[C@@H](CO)C(=O)N[C@@H](CO)C(=O)N[C@H](C(=O)N[C@@H](CC(N)=O)C(=O)N[C@H](C(=O)NCC(=O)N[C@@H](CO)C(=O)N[C@@H](CCC(=O)O)C(=O)N[C@H](C(=O)N[C@@H](Cc1ccc(O)cc1)C(N)=O)[C@@H](C)O)C(C)C)[C@@H](C)O
notes: also called compound 30
B3: N^ε1-[2-[2-[2-[[2-[2-[2-[[(4S)-4-carboxy-4-(19-carboxynonadecanoylamino)butanoyl]amino]ethoxy]ethoxy]acetyl]amino]ethoxy]ethoxy]acetyl]-[Arg17,Pro21,Pro27,Glu35 … (peptide)
peptide: K([AEEA-AEEA-γGlu-C20 diacid])CNTATCATQRLANFLRHSSPNFGAIPSSTNVGSETY-NH2
modifications: disulfide 2-7; N-terminus assumed
SMILES: CC[C@H](C)[C@H](NC(=O)[C@H](C)NC(=O)CNC(=O)[C@H](Cc1ccccc1)NC(=O)[C@H](CC(N)=O)NC(=O)[C@@H]1CCCN1C(=O)[C@H](CO)NC(=O)[C@H](CO)NC(=O)[C@H](Cc1c[nH]cn1)NC(=O)[C@H](CCCNC(=N)N)NC(=O)[C@H](CC(C)C)NC(=O)[C@H](Cc1ccccc1)NC(=O)[C@H](CC(N)=O)NC(=O)[C@H](C)NC(=O)[C@H](CC(C)C)NC(=O)[C@H](CCCNC(=N)N)NC(=O)[C@H](CCC(N)=O)NC(=O)[C@@H](NC(=O)[C@H](C)NC(=O)[C@@H]1CSSC[C@H](NC(=O)[C@@H](N)CCCCNC(=O)COCCOCCNC(=O)COCCOCCNC(=O)CC[C@H](NC(=O)CCCCCCCCCCCCCCCCCCC(=O)O)C(=O)O)C(=O)N[C@@H](CC(N)=O)C(=O)N[C@@H]([C@@H](C)O)C(=O)N[C@@H](C)C(=O)N[C@@H]([C@@H](C)O)C(=O)N1)[C@@H](C)O)C(=O)N1CCC[C@H]1C(=O)N[C@@H](CO)C(=O)N[C@@H](CO)C(=O)N[C@H](C(=O)N[C@@H](CC(N)=O)C(=O)N[C@H](C(=O)NCC(=O)N[C@@H](CO)C(=O)N[C@@H](CCC(=O)O)C(=O)N[C@H](C(=O)N[C@@H](Cc1ccc(O)cc1)C(N)=O)[C@@H](C)O)C(C)C)[C@@H](C)O
notes: also called compound 25
B4: N^ε1-[2-[2-[2-[[(4S)-4-carboxy-4-(19-carboxynonadecanoylamino)butanoyl]amino]ethoxy]ethoxy]acetyl]-[Arg17,Pro21,Pro27,Arg35]-h-amylin (peptide)
peptide: K([AEEA-γGlu-C20 diacid])CNTATCATQRLANFLRHSSPNFGAIPSSTNVGSRTY-NH2
modifications: disulfide 2-7; N-terminus assumed
SMILES: CC[C@H](C)[C@H](NC(=O)[C@H](C)NC(=O)CNC(=O)[C@H](Cc1ccccc1)NC(=O)[C@H](CC(N)=O)NC(=O)[C@@H]1CCCN1C(=O)[C@H](CO)NC(=O)[C@H](CO)NC(=O)[C@H](Cc1c[nH]cn1)NC(=O)[C@H](CCCNC(=N)N)NC(=O)[C@H](CC(C)C)NC(=O)[C@H](Cc1ccccc1)NC(=O)[C@H](CC(N)=O)NC(=O)[C@H](C)NC(=O)[C@H](CC(C)C)NC(=O)[C@H](CCCNC(=N)N)NC(=O)[C@H](CCC(N)=O)NC(=O)[C@@H](NC(=O)[C@H](C)NC(=O)[C@@H]1CSSC[C@H](NC(=O)[C@@H](N)CCCCNC(=O)COCCOCCNC(=O)CC[C@H](NC(=O)CCCCCCCCCCCCCCCCCCC(=O)O)C(=O)O)C(=O)N[C@@H](CC(N)=O)C(=O)N[C@@H]([C@@H](C)O)C(=O)N[C@@H](C)C(=O)N[C@@H]([C@@H](C)O)C(=O)N1)[C@@H](C)O)C(=O)N1CCC[C@H]1C(=O)N[C@@H](CO)C(=O)N[C@@H](CO)C(=O)N[C@H](C(=O)N[C@@H](CC(N)=O)C(=O)N[C@H](C(=O)NCC(=O)N[C@@H](CO)C(=O)N[C@@H](CCCNC(=N)N)C(=O)N[C@H](C(=O)N[C@@H](Cc1ccc(O)cc1)C(N)=O)[C@@H](C)O)C(C)C)[C@@H](C)O
notes: also called compound 38
B5: N^ε1-[2-[2-[2-[[(4S)-4-carboxy-4-(19-carboxynonadecanoylamino)butanoyl]amino]ethoxy]ethoxy]acetyl]-[Arg17,Pro21,Pro27,Glu35]-h-amylin (peptide)
peptide: K([AEEA-γGlu-C20 diacid])CNTATCATQRLANFLRHSSPNFGAIPSSTNVGSETY-NH2
modifications: disulfide 2-7; N-terminus assumed
SMILES: CC[C@H](C)[C@H](NC(=O)[C@H](C)NC(=O)CNC(=O)[C@H](Cc1ccccc1)NC(=O)[C@H](CC(N)=O)NC(=O)[C@@H]1CCCN1C(=O)[C@H](CO)NC(=O)[C@H](CO)NC(=O)[C@H](Cc1c[nH]cn1)NC(=O)[C@H](CCCNC(=N)N)NC(=O)[C@H](CC(C)C)NC(=O)[C@H](Cc1ccccc1)NC(=O)[C@H](CC(N)=O)NC(=O)[C@H](C)NC(=O)[C@H](CC(C)C)NC(=O)[C@H](CCCNC(=N)N)NC(=O)[C@H](CCC(N)=O)NC(=O)[C@@H](NC(=O)[C@H](C)NC(=O)[C@@H]1CSSC[C@H](NC(=O)[C@@H](N)CCCCNC(=O)COCCOCCNC(=O)CC[C@H](NC(=O)CCCCCCCCCCCCCCCCCCC(=O)O)C(=O)O)C(=O)N[C@@H](CC(N)=O)C(=O)N[C@@H]([C@@H](C)O)C(=O)N[C@@H](C)C(=O)N[C@@H]([C@@H](C)O)C(=O)N1)[C@@H](C)O)C(=O)N1CCC[C@H]1C(=O)N[C@@H](CO)C(=O)N[C@@H](CO)C(=O)N[C@H](C(=O)N[C@@H](CC(N)=O)C(=O)N[C@H](C(=O)NCC(=O)N[C@@H](CO)C(=O)N[C@@H](CCC(=O)O)C(=O)N[C@H](C(=O)N[C@@H](Cc1ccc(O)cc1)C(N)=O)[C@@H](C)O)C(C)C)[C@@H](C)O
notes: also called compound 26

Molecular target: T1, human amylin receptor (human, UniProt P30988 25-474; O60896 24-148, limits assumed)
T1 construct: whole, on cells; Used as cell membranes prepared from the Amylin 3(a)/CRE-luc BHK cells (Assay V); also called hAmylin-R; hAmylinR
T1 sequence (looked up) 1: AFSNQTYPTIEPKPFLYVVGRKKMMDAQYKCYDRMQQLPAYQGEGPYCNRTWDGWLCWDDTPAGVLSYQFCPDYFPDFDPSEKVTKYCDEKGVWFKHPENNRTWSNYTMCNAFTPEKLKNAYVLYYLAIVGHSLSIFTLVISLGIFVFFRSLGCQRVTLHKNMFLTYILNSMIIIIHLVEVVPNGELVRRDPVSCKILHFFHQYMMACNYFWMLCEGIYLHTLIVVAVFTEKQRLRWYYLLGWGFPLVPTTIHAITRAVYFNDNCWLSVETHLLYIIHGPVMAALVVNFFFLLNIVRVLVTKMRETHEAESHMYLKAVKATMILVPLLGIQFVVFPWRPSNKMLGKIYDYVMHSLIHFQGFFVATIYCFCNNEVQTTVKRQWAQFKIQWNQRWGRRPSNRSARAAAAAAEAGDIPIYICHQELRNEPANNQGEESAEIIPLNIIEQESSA
T1 sequence (looked up) 2: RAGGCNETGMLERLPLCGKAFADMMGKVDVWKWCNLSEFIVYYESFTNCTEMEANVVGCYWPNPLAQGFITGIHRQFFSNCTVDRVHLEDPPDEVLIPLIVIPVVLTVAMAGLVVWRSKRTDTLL
Experiment: SPA competition vs 125I-rat amylin, membranes of amylin 3(a) receptor BHK cells (Assay V)
Procedure: The binding assay was performed using scintillation proximity assay (SPA) beads (RPNQ0001) from PerkinElmer and cell membranes from the Amylin 3(a)/CRE-luc cells (as described in Assay (II)) were used. Membranes were prepared in the following way; the cells were rinsed with PBS and incubated with Versene for approximately 5 min before harvesting. The cells were flushed with PBS and the cell-suspension was centrifuged for 5 min at 1000 rpm. Cells were homogenized (ultrathurrax) in a buffer containing 20 mM Na-HEPES and 10 mM EDTA (pH 7.4) and centrifuged at 20.000 rpm for 15 min. The resulting pellet was resuspended, homogenized and centrifuged (20.000 rpm, 15 min) in a buffer containing 20 mM Na-HEPES and 0.1 mM EDTA (pH 7.4, buffer 2). The resulting pellet was resuspended in buffer 2 and protein concentration was measured (BCA protein Assay, Pierce). The homogenate was kept cold during the whole procedure. The membranes were kept at −80° C. until use. The assay was performed in a 384 well Optiplate (PerkinElmer) in a total volume of 40 ul. Membranes were mixed with SPA beads. Final concentration of membranes 35 ng/μL final and SPA beads was 0.05 mg/well. Test-compounds were dissolved in DMSO and further diluted in assay buffer (50 mM Hepes, pH 7.4, 1 mM CaCl2, 5 mM MgCl₂, 0.1% OA and 0.02% Tween20). […] The final mixture was incubated with shaking at 400 rpm for 120 min at 25° C. prior to centrifugation (1500 rpm, 10 min). Samples were analyzed on TopCounter™ (Packard). The IC₅₀ was calculated using (one site binding competition analysis) GraphPad Prism5 as a measure of receptor affinity.

| Binder | IC50 |
| --- | --- |
| B1 | 0.204 nM |
| B2 | 0.919 nM |
| B3 | 0.768 nM |
| B4 | 0.249 nM |
| B5 | 0.532 nM |
